tested on: GST-rPfPuf2 (Plasmodium falciparum); test: EMSA; settings: LightShift RNA EMSA binding buffer (salt, pH not given), 5% glycerol, 2 ug tRNA per 20 ul, RNase inhibitor, 2.5 nM RNA, 0.25-400 nM rPfPuf2, room temperature …

Sequence | Kd
GAAAUGUUCUUUUCCAAUUAUAUUUUGUUCGAUGAUUC [pfs28 RNA1M] | 143 nM
GAAAUGUUCUUUUGUAAUUAUAUUUUGUUCGAUGAUUC [pfs28 RNA1] | 6.7 nM
UUCUCAUUUCCUAAUAAAUUGUUGUGAAAACAA [pfs25 RNA1M] | 169 nM
UUCUCAUUUGUUAAUAAAUUGUUGUGAAAACAA [pfs25 RNA1] | 11.5 nM

Source: publication PMC3630172
